“And” between values parts separate entries of the source, which are not always exact repeats. Equal values may be shown once. One block for each molecule: values may come before it.
How the values were obtained:
[1] = molecular target: KIF5C(Δtail)-mScarlet-Strep-tag II (human) (UniProt O60282); assay: mass photometry
[2] = molecular target: KIF5C(ΔtailΔelbow)-mScarlet-Strep-tag II (human) (UniProt O60282); assay: mass photometry
mass photometry = molecular target: the molecule itself; assay: mass photometry
[3] = molecular target: Taxol-stabilized microtubules polymerised from pig brain tubulin (pig) (UniProt P02550); assay: TIRF single-molecule motility assay

percent of particles as dimer [1]: 93%
stoichiometry N [1]: 2
Molecule: KIF5C(Δtail)-mScarlet-Strep-tag II (from UniProt O60282 1-914) (domain or fragment)

percent of particles as dimer [2]: 91%
stoichiometry N [2]: 2
Molecule: KIF5C(ΔtailΔelbow)-mScarlet-Strep-tag II (from UniProt O60282 1-914) (domain or fragment)

landing rate (molecules/μm/s) [3]: 0.011 and 0.0047
B1: KIF5C-mScarlet-Strep-tag II (human KIF5C, full length) (natural protein)
chain: MADPAECSIKVMCRFRPLNEAEILRGDKFIPKFKGDETVVIGQGKPYVFDRVLPPNTTQEQVYNACAKQIVKDVLEGYNGTIFAYGQTSSGKTHTMEGKLHDPQLMGIIPRIAHDIFDHIYSMDENLEFHIKVSYFEIYLDKIRDLLDVSKTNLAVHEDKNRVPYVKGCTERFVSSPEEVMDVIDEGKANRHVAVTNMNEHSSRSHSIFLINIKQENVETEKKLSGKLYLVDLAGSEKVSKTGAEGAVLDEAKNINKSLSALGNVISALAEGTKTHVPYRDSKMTRILQDSLGGNCRTTIVICCSPSVFNEAETKSTLMFGQRAKTIKNTVSVNLELTAEEWKKKYEKEKEKNKTLKNVIQHLEMELNRWRNGEAVPEDEQISAKDQKNLEPCDNTPIIDNIAPVVAGISTEEKEKYDEEISSLYRQLDDKDDEINQQSQLAEKLKQQMLDQDELLASTRRDYEKIQEELTRLQIENEAAKDEVKEVLQALEELAVNYDQKSQEVEDKTRANEQLTDELAQKTTTLTTTQRELSQLQELSNHQKKRATEILNLLLKDLGEIGGIIGTNDVKTLADVNGVIEEEFTMARLYISKMKSEVKSLVNRSKQLESAQMDSNRKMNASERELAACQLLISQHEAKIKSLTDYMQNMEQKRRQLEESQDSLSEELAKLRAQEKMHEVSFQDKEKEHLTRLQDAEEMKKALEQQMESHREAHQKQLSRLRDEIEEKQKIIDEIRDLNQKLQLEQEKLSSDYNKLKIEDQEREMKLEKLLLLNDKREQAREDLKGLEETVSRELQTLHNLRKLFVQDLTTRVKKSVELDNDDGGGSAAQKQKISFLENNLEQLTKVHKQLVRDNADLRCELPKLEKRLRATAERVKALESALKEAKENAMRDRKRYQQEVDRIKEAVRAKNMARRAHSAQIAKPIRPGHYPASSPTAVHAIRGGGGSSSNSTHYQK
stoichiometry N (mass photometry): 2 and 4

Further lines, the molecule ahead of its results:

B2: KIF5C-Strep-tag II (natural protein)
chain: MADPAECSIKVMCRFRPLNEAEILRGDKFIPKFKGDETVVIGQGKPYVFDRVLPPNTTQEQVYNACAKQIVKDVLEGYNGTIFAYGQTSSGKTHTMEGKLHDPQLMGIIPRIAHDIFDHIYSMDENLEFHIKVSYFEIYLDKIRDLLDVSKTNLAVHEDKNRVPYVKGCTERFVSSPEEVMDVIDEGKANRHVAVTNMNEHSSRSHSIFLINIKQENVETEKKLSGKLYLVDLAGSEKVSKTGAEGAVLDEAKNINKSLSALGNVISALAEGTKTHVPYRDSKMTRILQDSLGGNCRTTIVICCSPSVFNEAETKSTLMFGQRAKTIKNTVSVNLELTAEEWKKKYEKEKEKNKTLKNVIQHLEMELNRWRNGEAVPEDEQISAKDQKNLEPCDNTPIIDNIAPVVAGISTEEKEKYDEEISSLYRQLDDKDDEINQQSQLAEKLKQQMLDQDELLASTRRDYEKIQEELTRLQIENEAAKDEVKEVLQALEELAVNYDQKSQEVEDKTRANEQLTDELAQKTTTLTTTQRELSQLQELSNHQKKRATEILNLLLKDLGEIGGIIGTNDVKTLADVNGVIEEEFTMARLYISKMKSEVKSLVNRSKQLESAQMDSNRKMNASERELAACQLLISQHEAKIKSLTDYMQNMEQKRRQLEESQDSLSEELAKLRAQEKMHEVSFQDKEKEHLTRLQDAEEMKKALEQQMESHREAHQKQLSRLRDEIEEKQKIIDEIRDLNQKLQLEQEKLSSDYNKLKIEDQEREMKLEKLLLLNDKREQAREDLKGLEETVSRELQTLHNLRKLFVQDLTTRVKKSVELDNDDGGGSAAQKQKISFLENNLEQLTKVHKQLVRDNADLRCELPKLEKRLRATAERVKALESALKEAKENAMRDRKRYQQEVDRIKEAVRAKNMARRAHSAQIAKPIRPGHYPASSPTAVHAIRGGGGSSSNSTHYQK
stoichiometry N (mass photometry): 4 and 2

B3: KIF5C(Δelbow)-mScarlet-Strep-tag II (natural protein)
chain: MADPAECSIKVMCRFRPLNEAEILRGDKFIPKFKGDETVVIGQGKPYVFDRVLPPNTTQEQVYNACAKQIVKDVLEGYNGTIFAYGQTSSGKTHTMEGKLHDPQLMGIIPRIAHDIFDHIYSMDENLEFHIKVSYFEIYLDKIRDLLDVSKTNLAVHEDKNRVPYVKGCTERFVSSPEEVMDVIDEGKANRHVAVTNMNEHSSRSHSIFLINIKQENVETEKKLSGKLYLVDLAGSEKVSKTGAEGAVLDEAKNINKSLSALGNVISALAEGTKTHVPYRDSKMTRILQDSLGGNCRTTIVICCSPSVFNEAETKSTLMFGQRAKTIKNTVSVNLELTAEEWKKKYEKEKEKNKTLKNVIQHLEMELNRWRNGEAVPEDEQISAKDQKNLEPCDNTPIIDNIAPVVAGISTEEKEKYDEEISSLYRQLDDKDDEINQQSQLAEKLKQQMLDQDELLASTRRDYEKIQEELTRLQIENEAAKDEVKEVLQALEELAVNYDQKSQEVEDKTRANEQLTDELAQKTTTLTTTQRELSQLQELSNHQKKRATEILNLLLKDLGEIGGIIGTNDVKTLADVNGVIEEEFTMARLYISKMKSEVKSLVNRSKQLESAQMDSNRKMNASERELAACQLLISQHEAKIKSLTDYMQNMEQKRRQLEESQDSLSEELAKLRAQLQDAEEMKKALEQQMESHREAHQKQLSRLRDEIEEKQKIIDEIRDLNQKLQLEQEKLSSDYNKLKIEDQEREMKLEKLLLLNDKREQAREDLKGLEETVSRELQTLHNLRKLFVQDLTTRVKKSVELDNDDGGGSAAQKQKISFLENNLEQLTKVHKQLVRDNADLRCELPKLEKRLRATAERVKALESALKEAKENAMRDRKRYQQEVDRIKEAVRAKNMARRAHSAQIAKPIRPGHYPASSPTAVHAIRGGGGSSSNSTHYQK
stoichiometry N (mass photometry): 4

B4: KIF5C(Δelbow)-Strep-tag II (natural protein)
chain: MADPAECSIKVMCRFRPLNEAEILRGDKFIPKFKGDETVVIGQGKPYVFDRVLPPNTTQEQVYNACAKQIVKDVLEGYNGTIFAYGQTSSGKTHTMEGKLHDPQLMGIIPRIAHDIFDHIYSMDENLEFHIKVSYFEIYLDKIRDLLDVSKTNLAVHEDKNRVPYVKGCTERFVSSPEEVMDVIDEGKANRHVAVTNMNEHSSRSHSIFLINIKQENVETEKKLSGKLYLVDLAGSEKVSKTGAEGAVLDEAKNINKSLSALGNVISALAEGTKTHVPYRDSKMTRILQDSLGGNCRTTIVICCSPSVFNEAETKSTLMFGQRAKTIKNTVSVNLELTAEEWKKKYEKEKEKNKTLKNVIQHLEMELNRWRNGEAVPEDEQISAKDQKNLEPCDNTPIIDNIAPVVAGISTEEKEKYDEEISSLYRQLDDKDDEINQQSQLAEKLKQQMLDQDELLASTRRDYEKIQEELTRLQIENEAAKDEVKEVLQALEELAVNYDQKSQEVEDKTRANEQLTDELAQKTTTLTTTQRELSQLQELSNHQKKRATEILNLLLKDLGEIGGIIGTNDVKTLADVNGVIEEEFTMARLYISKMKSEVKSLVNRSKQLESAQMDSNRKMNASERELAACQLLISQHEAKIKSLTDYMQNMEQKRRQLEESQDSLSEELAKLRAQLQDAEEMKKALEQQMESHREAHQKQLSRLRDEIEEKQKIIDEIRDLNQKLQLEQEKLSSDYNKLKIEDQEREMKLEKLLLLNDKREQAREDLKGLEETVSRELQTLHNLRKLFVQDLTTRVKKSVELDNDDGGGSAAQKQKISFLENNLEQLTKVHKQLVRDNADLRCELPKLEKRLRATAERVKALESALKEAKENAMRDRKRYQQEVDRIKEAVRAKNMARRAHSAQIAKPIRPGHYPASSPTAVHAIRGGGGSSSNSTHYQK
percent of particles as dimer (mass photometry): 13%
percent of particles as tetramer (mass photometry): 62%
stoichiometry N (mass photometry): 2 and 4
